pKd: −log10 of the molar value.
How the values were obtained:
Assay in all cases: SPR
[1] = biological target: factor H binding protein (fHbp) V3.45, recombinant, wild type (Neisseria meningitidis) (UniProt E6MV22)
[2] = biological target: Ghfp^M4–5 (R288H and D318G) (Neisseria gonorrhoeae strain FA1090)
[3] = biological target: Ghfp^M4 (R288H) (Neisseria gonorrhoeae strain FA1090)

complement control protein (CCP) domains 6 and 7 of fH (fH6–7) (domain or fragment)
pKd [1]: 9.00
pKd [2]: 8.70
pKd [3]: 7.80
